Measured values as given in patent publication US20260185137.
Substitutions are numbered along the chain they refer to. Names may count otherwise.

B1: R1-I77R, RING domain construct of rhesus monkey TRIM5alpha with the I77R mutation (protein)
chain: ASGILLNVKEEVTCPICLELLTEPLSLHCGHSFCQACITANHKKSMLYKEGERSCPVCRISYQPENIQPNRHVANRVEKLREVKLSPEE
B2: R3-I77R, trimeric RING-foldon construct of rhesus monkey TRIM5alpha with the I77R mutation (protein)
chain: ASGILLNVKEEVTCPICLELLTEPLSLHCGHSFCQACITANHKKSMLYKEGERSCPVCRISYQPENIQPNRHVANRVEKLREVKLSPEEGQKVDGYIPEAPRDGQAYVRKDGEWVFLSTFLHHHHHH
B3: R3-WT, trimeric RING construct of rhesus monkey TRIM5alpha fused to T4 fibritin foldon (protein)
chain: B2 chain with R76I
B4: R2-WT, tandem RING dimer construct of rhesus monkey TRIM5alpha (protein)
chain: ASGILLNVKEEVTCPICLELLTEPLSLHCGHSFCQACITANHKKSMLYKEGERSCPVCRISYQPENIQPNRHVANIVEKLRGSASGILLNVKEEVTCPICLELLTEPLSLHCGHSFCQACITANHKKSMLYKEGERSCPVCRISYQPENIQPNRHVANIVEKLREVKLSPEEGQ

Tests used:
[1] = molecular target: AF594-UBE2N~AF488-Ub/UBE2V2 conjugate, P61088
Chain of AF594-UBE2N~AF488-Ub/UBE2V2 conjugate, P61088 (P61088 whole entry, looked up): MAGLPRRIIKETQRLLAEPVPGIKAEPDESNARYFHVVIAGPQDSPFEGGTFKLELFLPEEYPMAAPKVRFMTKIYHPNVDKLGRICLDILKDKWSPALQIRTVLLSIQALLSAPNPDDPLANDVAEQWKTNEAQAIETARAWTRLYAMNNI

[2] = molecular target: AF594-UBE2W~AF488-Ub conjugate, Q96B02
Chain of AF594-UBE2W~AF488-Ub conjugate, Q96B02 (Q96B02 whole entry, looked up): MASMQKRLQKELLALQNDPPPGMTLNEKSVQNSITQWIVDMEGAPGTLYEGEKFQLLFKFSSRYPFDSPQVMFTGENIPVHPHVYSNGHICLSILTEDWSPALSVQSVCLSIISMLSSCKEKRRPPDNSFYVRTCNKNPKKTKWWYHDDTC

Protein	E3 activity (kcat/Km) for ubiquitin discharge, FRET ubiquitin discharge assay [1]	E3 activity (initial slope of Michaelis-Menten curve of FRET decay amplitude), FRET ubiquitin discharge assay [2]	E3 activity per RING monomer for ubiquitin discharge, FRET ubiquitin discharge assay [1]
B1	catalysis of ubiquitin discharge from the UBE2N/V2-Ub conjugate is virtually abolished by the I77R mutation in the R1-177R and R3-177R constructs	the R3-177R and R1-177R constructs retained less than 10% of the R3-WT and R1-WT E3 activity, respectively	–
B2	catalysis of ubiquitin discharge from the UBE2N/V2-Ub conjugate is virtually abolished by the I77R mutation in the R1-177R and R3-177R constructs	the R3-177R and R1-177R constructs retained less than 10% of the R3-WT and R1-WT E3 activity, respectively	–
B3	–	significantly higher activity of the R3-WT construct in comparison to R2-WT	the E3 activity per RING monomer is lower in the R3-WT construct than in R2-WT
B4	The E3 activity of the R2-WT is also significantly higher than that of the R1-WT	–	–
